# From IntAct's records for PubMed 9371806
# B1: Achaete-scute complex protein T4 (Drosophila melanogaster (Fruit fly)), P10084 (parent)
# chain: MKNNNNTTKSTTMSSSVLSTNETFPTTINSATKIFRYQHIMPAPSPLIPGGNQNQPAGTMPIKTRKYTPRGMALTRCSESVSSLSPGSSPAPYNVDQSQSVQRRNARERNRVKQVNNSFARLRQHIPQSIITDLTKGGGRGPHKKISKVDTLRIAVEYIRRLQDLVDDLNGGSNIGANNAVTQLQLCLDESSSHSSSSSTCSSSGHNTYYQNTISVSPLQQQQQLQRQQFNHQPLTALSLNTNLVGTSVPGGDAGCVSTSKNQQTCHSPTSSFNSSMSFDSGTYEGVPQQISTHLDRLDHLDNELHTHSQLQLKFEPYEHFQLDEEDCTPDDEEILDYISLWQEQ
# partner: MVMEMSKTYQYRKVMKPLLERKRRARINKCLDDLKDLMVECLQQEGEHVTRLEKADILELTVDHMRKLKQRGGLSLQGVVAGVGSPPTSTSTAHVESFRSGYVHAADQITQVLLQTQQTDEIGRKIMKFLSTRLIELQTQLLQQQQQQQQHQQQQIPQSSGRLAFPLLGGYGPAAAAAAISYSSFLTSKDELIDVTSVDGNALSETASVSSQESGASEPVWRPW
# B2: Achaete-scute complex protein T4 (Drosophila melanogaster (Fruit fly)), P10084 (parent)
# chain: B1 chain
# partner: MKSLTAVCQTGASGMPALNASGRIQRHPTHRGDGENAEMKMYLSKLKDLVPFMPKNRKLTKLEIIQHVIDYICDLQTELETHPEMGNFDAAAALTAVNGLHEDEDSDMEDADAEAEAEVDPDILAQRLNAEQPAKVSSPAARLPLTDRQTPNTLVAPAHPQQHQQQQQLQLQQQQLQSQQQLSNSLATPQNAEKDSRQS
# Variants of: B1
# Details: with esm3_drome E(spl)m3-HLH
row,effect of a mutation on the interaction,Variant
1,increasing interaction,MKNNNNTTKSTTMSSSVLSTNETFPTTINSATKIFRYQHIMPAPSPLIPGGNQNQPAGTMPIKTRKYTPRGMALTRCSESVSSLSPGSSPAPYNVDQSQSVQRRNARERNRVKQVNNSFARLRQHIPQSIITDLTKGGGRGPHKKISKVDTLRIAVEYIRRLQDLVDDLNGGSNIGANNAVTQLQLCLDESSSHSSSSSTCSSSGHNTYYQNTISVSPLQQQQQLQRQQFNHQPLTALSLNTNLVGTSVPGGDAGCVSTSKNQQTCHSPTSSFNSSMSFDSGTYEGVPQQISTHLDRLDHLDNELHTHSQLQLKFEPYEHFQLDEEDCTPDDEEILDYIDLWQEQ [S340D]

# Variants of: B2
# Details: with emc_drome emc
row,effect of a mutation on the interaction,Variant
1,decreasing interaction,MKNNNNTTKSTTMSSSVLSTNETFPTTINSATKIFRYQHIMPAPSPLIPGGNQNQPAGTMPIKTRKYTPRGMALTRCSESVSSLSPGSSPAPYNVDQSQSVQRRNARERNRVKQVNNSFARLRQHIPQSIITDLTKGGGRGPHKKISKVDTLRIAVEYIRRLQDLVDDLNGGSNIGANNAVTQLQLCLDESSSHSSSSSTCSSSGHNTYYQNTISVSPLQQQQQLQRQQFNHQPLTALSLNTNLVGTSVPGGDAGCVSTSKNQQTCHSPTSSFNSSMSFDSGTYEGVPQQISTHLDRLDHLDNELHTHSQLQLKFEPYEHFQLDEEDCTPDDEEILDYIDLWQEQ [S340D]
